From publication PMC7875338 (ACS synthetic biology, 2021)
Positions count from the first letter of the chain named.

B1: sdAb WuN1-APEX2 fusion protein (VHH)
VHH: QVKLQQSGGGLVQAGGSLRLSCAPSGRTFSVNAMGWYRQAPGKQREPVALISTGGSTNYADSVKGRFTITRDNVKNTVYLQMNTLKPEDTAVYYCYTERWKPRGIERDWGQGTQVTVSS
B2: sdAb WuN3-APEX2 fusion protein (VHH)
VHH: B1 VHH with Q1K, A14T, T70S

Biological target: beta-galactosidase (β-gal), negative control expressed in HEK293T cells (Escherichia coli K12 lacZ, assumed, UniProt P00722 = β-galactosidase)
Sequence (P00722 whole entry): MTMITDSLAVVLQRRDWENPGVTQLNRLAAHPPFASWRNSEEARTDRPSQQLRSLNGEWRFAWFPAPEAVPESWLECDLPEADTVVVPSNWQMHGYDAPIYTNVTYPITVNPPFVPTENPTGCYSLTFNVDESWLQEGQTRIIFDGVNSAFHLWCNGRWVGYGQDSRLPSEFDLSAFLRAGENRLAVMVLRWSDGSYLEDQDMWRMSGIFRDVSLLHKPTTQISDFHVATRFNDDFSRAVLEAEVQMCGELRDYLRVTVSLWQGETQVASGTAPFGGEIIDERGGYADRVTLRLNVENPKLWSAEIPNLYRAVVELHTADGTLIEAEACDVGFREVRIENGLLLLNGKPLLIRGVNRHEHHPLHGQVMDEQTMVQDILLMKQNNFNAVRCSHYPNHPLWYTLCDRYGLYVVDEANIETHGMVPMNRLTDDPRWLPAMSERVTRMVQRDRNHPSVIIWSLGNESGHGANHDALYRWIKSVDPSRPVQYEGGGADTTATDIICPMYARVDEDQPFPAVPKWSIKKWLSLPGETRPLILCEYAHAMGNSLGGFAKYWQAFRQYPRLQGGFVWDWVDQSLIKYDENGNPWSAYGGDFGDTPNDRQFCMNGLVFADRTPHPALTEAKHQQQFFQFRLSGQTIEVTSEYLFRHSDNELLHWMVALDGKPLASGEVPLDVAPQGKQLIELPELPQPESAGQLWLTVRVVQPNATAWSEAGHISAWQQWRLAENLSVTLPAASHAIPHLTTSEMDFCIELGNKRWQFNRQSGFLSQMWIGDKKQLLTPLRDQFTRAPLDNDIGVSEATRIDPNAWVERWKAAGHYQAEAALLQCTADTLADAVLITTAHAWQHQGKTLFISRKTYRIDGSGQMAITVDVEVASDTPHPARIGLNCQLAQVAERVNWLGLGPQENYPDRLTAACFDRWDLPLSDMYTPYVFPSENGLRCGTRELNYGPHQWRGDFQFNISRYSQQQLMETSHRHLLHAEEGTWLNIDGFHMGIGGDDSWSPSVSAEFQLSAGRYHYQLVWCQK
Assay: immunostaining of cells or tissue

Binder	binding result
B1	no binding (tested: 100 nM)
B2	no binding (tested: 100 nM)
